Columns and labels:
[1] = target: Cx36-DsRed (Rattus norvegicus) (UniProt O70610); assay: FRET or BRET; acceptor photobleaching FRET in double transfected Neuro 2a cells fixed with 4% paraformaldehyde; ECFP donor, DsRed acceptor; threshold 1.7% (10 nm); cells untreated or treated before with 2 uM ionomycin or 24 uM BAPTA-AM (10 min), 5 ug/mL BFA (6 h) or 50 uM Dynasore (1 h)
[2] = target: Cx36-ECFP (Rattus norvegicus) (UniProt O70610); assay: as above

FRET efficiency [1]	FRET efficiency [2]	FRET efficiency (cells treated with 2 uM ionomycin) [2]	FRET efficiency (cells treated with BFA for 6 h) [2]	FRET efficiency (no treatment, control of the Dynasore experiment) [2]	Substance
5.94					Cav-1-ECFP (natural protein)
	5.73	7.33	3.76	4	Cav-1-DsRed (natural protein)
